Patent publication EP1327680B1 (CHUGAI SEIYAKU KABUSHIKI KAISHA, dated 2008)

T1: human TPO receptor (MPL) expressed on Ba/F3 cells (human, UniProt P40238 26-635)
T1 sequence (looked up): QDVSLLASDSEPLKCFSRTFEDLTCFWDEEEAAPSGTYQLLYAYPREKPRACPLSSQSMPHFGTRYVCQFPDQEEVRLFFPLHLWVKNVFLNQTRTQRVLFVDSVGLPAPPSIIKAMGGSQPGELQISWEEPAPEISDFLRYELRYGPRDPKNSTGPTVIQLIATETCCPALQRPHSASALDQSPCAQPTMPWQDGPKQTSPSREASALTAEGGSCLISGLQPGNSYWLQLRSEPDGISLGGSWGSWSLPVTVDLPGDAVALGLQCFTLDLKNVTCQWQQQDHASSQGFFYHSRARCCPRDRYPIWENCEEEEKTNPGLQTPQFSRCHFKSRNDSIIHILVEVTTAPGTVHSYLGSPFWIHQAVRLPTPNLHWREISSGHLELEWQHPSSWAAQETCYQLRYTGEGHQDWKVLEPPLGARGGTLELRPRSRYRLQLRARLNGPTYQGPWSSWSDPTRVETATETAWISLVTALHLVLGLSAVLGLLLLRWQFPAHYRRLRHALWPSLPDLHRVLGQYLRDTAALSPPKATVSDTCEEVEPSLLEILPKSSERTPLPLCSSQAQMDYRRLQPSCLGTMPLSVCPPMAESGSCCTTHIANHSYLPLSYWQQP


Legend:
[1] = target: human TPO receptor (MPL) expressed on Ba/F3 cells (human) (UniProt P40238); experiment: cell-based or functional assay
[2] = target: T1, human TPO receptor (MPL) expressed on …; experiment: cell-based or functional assay

Molecule | ED50, agonist activity, proliferation of BaF/mpl cells (WST-8) [1] | ED50, TPO-like agonist activity, proliferation of BaF/mpl cells (WST-8) [2] | agonist activity, fold against monovalent sc12B5 [2]
human TPO (R&D Systems) (from UniProt P40225 22-353) (ligand) | 27 pM | – | –
antibody 12B5 (IgG) (antibody, V domains shown) VH: QVQLVQSGGGLVRPGGSLSLSCAVSGITLRTYGMHWVRQAPGKGLEWVAGISFDGRSEYYADSVQGRFTISRDSSKNTLYLQMNSLRAEDTAVYYCARGAHYGFDIWGQGTMVTVSS VL: DIQMTQSPSTLSASIGDRVTITCRASEGIYHWLAWYQQKPGKAPKLLIYKASSLASGAPSRFSGSGSGTDFTLTISSLQPDDFATYYCQQYSNYPLTFGGGTKLEIK | – | 29 nM | –
12B5Fab fragment (Fab, V domains shown) VH: QVQLVQSGGGLVRPGGSLSLSCAVSGITLRTYGMHWVRQAPGKGLEWVAGISFDGRSEYYADSVQGRFTISRDSSKNTLYLQMNSLRAEDTAVYYCARGAHYGFDIWGQGTMVTVSS VL: DIQMTQSPSTLSASIGDRVTITCRASEGIYHWLAWYQQKPGKAPKLLIYKASSLASGAPSRFSGSGSGTDFTLTISSLQPDDFATYYCQQYSNYPLTFGGGTKLEIK | – | 34700 nM | –
reconstructed 12B5 single chain Fv (sc12B5), culture supernatant of COS-7 cells (scFv) scFv: QVQLVQSGGGLVRPGGSLSLSCAVSGITLRTYGMHWVRQAPGKGLEWVAGISFDGRSEYYADSVQGRFTISRDSSKNTLYLQMNSLRAEDTAVYYCARGAHYGFDIWGQGTMVTVSSGGGGSGGGGSGGGGSDIQMTQSPSTLSASIGDRVTITCRASEGIYHWLAWYQQKPGKAPKLLIYKASSLASGAPSRFSGSGSGTDFTLTISSLQPDDFATYYCQQYSNYPLTFGGGTKLEIKDYKDDDDK | – | 75 nM | –
sc12B5 monomer (scFv) scFv: QVQLVQSGGGLVRPGGSLSLSCAVSGITLRTYGMHWVRQAPGKGLEWVAGISFDGRSEYYADSVQGRFTISRDSSKNTLYLQMNSLRAEDTAVYYCARGAHYGFDIWGQGTMVTVSSGGGGSGGGGSGGGGSDIQMTQSPSTLSASIGDRVTITCRASEGIYHWLAWYQQKPGKAPKLLIYKASSLASGAPSRFSGSGSGTDFTLTISSLQPDDFATYYCQQYSNYPLTFGGGTKLEIKDYKDDDDK | – | 4440 nM | –
sc12B5 dimer (scFv) scFv: QVQLVQSGGGLVRPGGSLSLSCAVSGITLRTYGMHWVRQAPGKGLEWVAGISFDGRSEYYADSVQGRFTISRDSSKNTLYLQMNSLRAEDTAVYYCARGAHYGFDIWGQGTMVTVSSGGGGSGGGGSGGGGSDIQMTQSPSTLSASIGDRVTITCRASEGIYHWLAWYQQKPGKAPKLLIYKASSLASGAPSRFSGSGSGTDFTLTISSLQPDDFATYYCQQYSNYPLTFGGGTKLEIKDYKDDDDK | – | 10.1 nM | ~400 fold
